Measured values taken from US20210380679A1 (INHIBRX BIOSCIENCES, published 2021).
Positions count from the first letter of the chain named. Blank lines part the entries; values can stand above or below the binder they belong to.

Key:
[1] = target: T1, human DLL3 (Delta-like ligand 3) (human, UniProt Q9NYJ7 27-618); experiment: flow cytometry, sdAb-Fc titrated on SHP-77 cells (DLL3 positive), APC anti-human Fc secondary
T1 construct: endogenous on SHP-77 cells; also called cell-surface DLL3
T1 sequence: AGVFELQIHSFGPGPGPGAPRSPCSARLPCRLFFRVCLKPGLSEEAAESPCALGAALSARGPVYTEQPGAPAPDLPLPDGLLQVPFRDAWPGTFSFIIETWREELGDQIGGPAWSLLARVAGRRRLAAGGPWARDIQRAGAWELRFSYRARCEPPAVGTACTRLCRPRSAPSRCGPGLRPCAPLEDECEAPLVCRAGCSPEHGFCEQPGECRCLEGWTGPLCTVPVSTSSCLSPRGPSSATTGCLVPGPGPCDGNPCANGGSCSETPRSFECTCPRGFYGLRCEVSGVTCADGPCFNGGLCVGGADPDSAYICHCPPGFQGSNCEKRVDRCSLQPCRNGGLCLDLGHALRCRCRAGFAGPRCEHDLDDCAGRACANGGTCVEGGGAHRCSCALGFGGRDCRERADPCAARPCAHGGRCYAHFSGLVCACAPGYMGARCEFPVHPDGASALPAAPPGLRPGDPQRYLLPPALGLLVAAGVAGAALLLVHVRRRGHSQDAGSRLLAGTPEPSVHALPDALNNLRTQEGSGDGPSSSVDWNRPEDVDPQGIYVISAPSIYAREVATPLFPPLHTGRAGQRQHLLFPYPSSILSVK
Description: (§1) FIGS. 2A-L set forth a series of graphs depicting the ability of sdAb and humanized variants thereof targeting DLL3 to bind cell surface DLL3.
(§2) Specificity and relative affinity were assessed for purified sdAb-Fcs on DLL3-expressing cells. […] A titration series of the fusion protein was incubated with the DLL3-expressing cell lines (approximately 2.5×10⁴ to 5×10⁴ cells/well) for 30 minutes at 4 degrees Celsius in FACS Buffer (PBS 1% BSA, 0.1% NaN₃ pH 7.4) in 96-well plates. Following three wash steps in FACS buffer, an APC-conjugated anti-human Fcγ specific secondary antibody (Jackson ImmunoResearch) was added and incubated for 30 minutes at 4 degrees Celsius. Following three additional wash steps in FACS buffer bound antibody was detected via flow cytometry (IQue Intellicyte).

[2] = target: T1, human DLL3 (Delta-like ligand 3); experiment: as above; remark: listed apart in the source
Description: as §2

[3] = target: T1, human DLL3 (Delta-like ligand 3); experiment: flow cytometry, sdAb-Fc titrated on 293FS cells transfected with DLL3 (panel title DLL3-FL), APC anti-human Fc secondary
Description: as §1, §2

[4] = target: T1, human DLL3 (Delta-like ligand 3); experiment: flow cytometry, SHP-77 cells

B1: hz10E5v1 (Fc fusion)
VHH: EVQLVESGGGEVQPGGSLRLSCAASGFTLDDYTIGWFRQAPGKEREGVSCISSSGGSTYYAESVKGRFTISRDNAKNTLYLQMSSLRAEDTAVYYCATYCPVVVGPELGYDYWGQGTLVTVKP
notes: tested as VHH-human Fc; Fc not specified
EC50 (read off the curve) [1]: ~5 nM

B2: L10E5 (Fc fusion)
VHH: EVQLVQSGGGLVQPGGSLRLSCAASGFTLDDYTIGWFRQFPGKEREGVSCISSSGGSTYYADSVKGRFTISRDNAKNTVWLQMNDLKSEDTAIYYCATYCPVVVGPELGYDYWGQGTQVTVKP
notes: as for B1
EC50 (read off the curve) [1]: ~3 nM

B7: 3B12 (Fc fusion)
VHH: QVQLQESGGGLVQSGGSLRLSCAASGFSLDDYTIGWFRQAPGKEREGVSCISSSGGSTYYADSVKGRFTISRDNAENTVYLQMNSLKPEDTAVYYCATYCPVTIADELGFDYWGQGTLVTVKP
notes: as for B1
binding result [2]: binds

B8: 3B4 (Fc fusion)
VHH: QVQLQQSGGGLVQAGGSLRLSCAASGSDFSINAMGWYRQGELVAGFTGDGNPIYADSVKGRFTISRGNAENTVSLQMNSLKPEDTAVYYCAADVKIGGDYEWYWGQGTQVTVKP
notes: as for B1
EC50 (read off the curve) [2]: ~0.06 nM

B9: L5A8 (Fc fusion)
VHH: QVQLVQSGGGLVQAGESLRLSCAASGSIFSINAMGWYRQVLGKQRELVAVVSSDGRTTVAPSVKGRFTISRDNAKNTVSLQMNSLKPEDTGVYYCGVREWYSDSDWRDYEGQGTQVTVKP
notes: as for B1
EC50 (read off the curve) [3]: ~10 nM

B11: hz5A8v12 (Fc fusion)
VHH: EVQLVESGGGEVQAGGSLRLSCAASGSIFSINAMGWYRQAPGKQRELVAVVSSDGRTTVAPSVKGRFTISRDNAKNTVYLQMSSLRAEDTAVYYCGVREWYSDSDWRDYEGQGTLVTVKP
notes: as for B1
binding result [4]: binds

B12: hz5A8v11 (Fc fusion)
VHH: B11 VHH with A14P, L47W
notes: as for B1
binding result [4]: binds

B13: hz5A8v10 (Fc fusion)
VHH: B11 VHH with A14P, G55A, S104A
notes: as for B1
binding result [4]: binds

B14: L10D9 (Fc fusion)
VHH: EVQLVQSGGGLVQAGGSLRLSCAASGSILSINAMGWYRQPPGKQREMVAGFTGDGNTIYADSVKGRFTISRDNAKNTVYLQMNSLKPEDTAVYYCAADVQLFSRDYEFYWGQGTQVTVKP
notes: tested as VHH-human Fc
binding result [2]: binds

B15: hz10D9v13 (Fc fusion)
VHH: EVQLVESGGGEVQPGGSLRLSCAASGFIFSINAMGWYRQAPGKQRELVAGFTGDTNTIYAESVKGRFTISRDNAKNTVYLQMSSLRAEDTAVYYCAADVQLFSRDYEFYWGQGTLVTVKP
notes: as for B1
binding result [4]: binds

B16: hz10D9v11 (Fc fusion)
VHH: B15 VHH with I31S, N32Y
notes: as for B1
binding result [4]: binds

B17: hz10D9v8 (Fc fusion)
VHH: B15 VHH with I28T
notes: as for B1
binding result [4]: binds

B18: hz10D9v12 (Fc fusion)
VHH: B15 VHH with F27S, N32Y
notes: as for B1
binding result [4]: binds

B19: hz10D9v10 (Fc fusion)
VHH: B15 VHH with F27S, I31S
notes: as for B1
binding result [4]: binds

B20: hz10D9v9 (Fc fusion)
VHH: B15 VHH with I28T, I31S, N32Y
notes: as for B1
binding result [4]: binds

B21: 6B4 (Fc fusion)
VHH: QVTLRESGGGLVQAGGSLRLSCGASEITLSDKTVGWYRQAPGKQRVLVAVISNVDSTNYAHSVKGRFTISRDNAKNTVYLQMNSLKPEDTAVYYCYARDFEAEYWGQGTLVTVKP
notes: as for B1
binding result [2]: binds

B22: hz8E7v8 (Fc fusion)
VHH: EVQLVESGGGEVQPGGSLRLSCGPSEIITSDKSVGWYRQAPGKQRNLVAGISNVGSTNYAQSVKGRFTISRDNAKNTLYLQMSSLRAEDTAVYYCYARDFENEYWGQGTLVTVKP
notes: as for B1
binding result [3]: binds

B23: hz8E7v11 (Fc fusion)
VHH: B22 VHH with Y37F
notes: as for B1
binding result [3]: binds

B24: hz8E7v15 (Fc fusion)
VHH: B22 VHH with V34M, Y37V
notes: as for B1
binding result [4]: binds

Next, values leading:

EC50 (read off the curve) [1]: ~10 nM
B3: hz10E5v4 (Fc fusion)
VHH: B1 VHH with R87K, A88S, V93I
notes: as for B1

EC50 (read off the curve) [1]: ~7 nM
B4: hz10E5v3 (Fc fusion)
VHH: B1 VHH with S84N, S85D
notes: as for B1

EC50 (read off the curve) [1]: ~7 nM
B5: hz10E5v5 (Fc fusion)
VHH: B1 VHH with A40F
notes: as for B1

EC50 (read off the curve) [1]: ~7 nM
B6: hz10E5v2 (Fc fusion)
VHH: B1 VHH with L79V, Y80W
notes: as for B1

EC50 (read off the curve) [3]: ~3 nM
B10: hz5A8v5 (Fc fusion)
VHH: B11 VHH with A14P, A91G
notes: as for B1

binding result [4]: binds
B25: hz8E7v13 (Fc fusion)
VHH: B22 VHH with V34M, Y37W, L78V
notes: as for B1

binding result [3]: binds
B26: hz8E7v6 (Fc fusion)
VHH: B22 VHH with T29F, Y37W
notes: as for B1

binding result [4]: binds
B27: hz6C5v6 (Fc fusion)
VHH: EVQLVESGGGEVQPGGSLRLSCAASEITFSDKTVGWYRQAPGKQRVLVAVISNVDATNYAESVKGRFTISRDNAKNTVYLQMSSLRAEDTAVYYCHARDFENEYWGQGTLVTVKP
notes: as for B1

binding result [3]: binds
B28: hz8E7v10 (Fc fusion)
VHH: B22 VHH with Y37W, N46E
notes: as for B1

binding result [3]: binds
B29: hz8E7v5 (Fc fusion)
VHH: B22 VHH with Y37W, L78V
notes: as for B1

binding result [4]: binds
B30: hz8E7v16 (Fc fusion)
VHH: B22 VHH with V34M, Y37V, L78V
notes: as for B1

binding result [3]: binds
B31: hz8E7v9 (Fc fusion)
VHH: B22 VHH with Y37V
notes: as for B1

binding result [4]: binds
B32: hz8E7v14 (Fc fusion)
VHH: B22 VHH with Y37V, L78V
notes: as for B1

binding result [4]: binds
B33: hz8E7v12 (Fc fusion)
VHH: B22 VHH with Y37W, Q44G, N46E
notes: as for B1
